Here are results for one protein from article PMC5414002 (mBio, 2017).

The series concerns the molecule itself. The series is described as follows: cryo-EM structure; EcFtsZ filaments, 0.5 mg/ml in 50 mM HEPES-KOH, 100 mM potassium acetate, 5 mM magnesium acetate, pH 7.7, 20°C, 0.1 mM GMPCPP; helical reconstruction in RELION.

B1: Full-length, untagged wild-type Escherichia coli FtsZ (natural protein, UniProt P0A9A6 1-383, looked up)
chain: MFEPMELTNDAVIKVIGVGGGGGNAVEHMVRERIEGVEFFAVNTDAQALRKTAVGQTIQIGSGITKGLGAGANPEVGRNAADEDRDALRAALEGADMVFIAAGMGGGTGTGAAPVVAEVAKDLGILTVAVVTKPFNFEGKKRMAFAEQGITELSKHVDSLITIPNDKLLKVLGRGISLLDAFGAANDVLKGAVQGIAELITRPGLMNVDFADVRTVMSEMGYAMMGSGVASGEDRAEEAAEMAISSPLLEDIDLSGARGVLVNITAGFDLRLDEFETVGNTIRAFASDNATVVIGTSLDPDMNDELRVTVVATGIGMDKRPEITLVTNKQVQQPVMDRYQQHGMAPLTQEQKPVAKVVNDNAPQTAKEPDYLDIPAFLRKQAD
notes: also called EcFtsZ; source: E. coli C41(DE3), purified (GTP- and calcium-induced precipitation, anion exchange)
With B1, the binding result is listed as “binds”.
